Experimental findings from the DeepSol protein solubility set are described below.

The data set in a line: soluble on expression in E. coli; label from the status in PepcDB or PDB records.
For “MSEAEARPTNFIRQIIDEDLASGKHTTVHTRFPPEPNGYLHIGHAKSICLNFGIAQDYKGQCNLRFDDTNPVKEDIEYVESIKNDVEWLGFHWSGNVRYSSDYFDQLHAYAIELINKGLAYVDELTPEQIREYRGTLTQPGKNSPYRDRSVEENLALFEKMRAGGFEEGKACLRAKIDMASPFIVMRDPVLYRIKFAEHHQTGNKWCIYPMYDFTHCISDALEGITHSLRTLEFQDNRRLYDWVLDNITIPVHPRQYEFSRLNLEYTVMSKRKLNLLVTDKHVEGWDDPRMPTISGLRRRGYTAASIREFCKRIGVTKQDNTIEMASLESCIREDLNENAPRAMAVIDPVKLVIENYQGEGEMVTMPNHPNKPEMGSRQVPFSGEIWIDRADFREEANKQYKRLVLGKEVRLRNAYVIKAERVEKDAEGNITTIFCTYDADTLSKDPADGRKVKGVIHWVSAAHALPVEIRLYDRLFSVPNPGAADDFLSVINPESLVIKQGFAEPSLKDAVAGKAFQFEREGYFCLDSRHSTAEKPVFNRTVGLRDTLEHHHHHH”, the “soluble on expression in E. coli” value was “soluble”.
As for “MGSDKIHHHHHHMEAADASRSNGSSPEARDARSPSGPSGSLENGTKADGKDAKTTNGHGGEAAEGKSLGSALKPGEGRSALFAGNEWRRPIIQFVESGDDKNSNYFSMDSMEGKRSPYAGLQLGAAKKPPVTFAEKGELRKSIFSESRKPTVSIMEPGETRRNSYPRADTGLFSRSKSGSEEVLCDSCIGNKQKAVKSCLVCQASFCELHLKPHLEGAAFRDHQLLEPIRDFEARKCPVHGKTMELFCQTDQTCICYLCMFQEHKNHSTVTVEEAKAEKETELSLQKEQLQLKIIEIEDEAEKWQKEKDRIKSFTTNEKAILEQNFRDLVRDLEKQKEEVRAALEQREQDAVDQVKVIMDALDERAKVLHEDKQTREQLHSISDSVLFLQEFGALMSNYSLPPPLPTYHVLLEGEGLGQSLGNFKDDLLNVCMRHVEKMCKADLSRNFIERNHMENGGDHRYVNNYTNSFGGEWSAPDTMKRYSMYLTPKGGVRTSYQPSSPGRFTKETTQKNFNNLYGTKGNYTSRVWEYSSSIQNSDNDLPVVQGSSSFSLKGYPSLMRSQSPKAQPQTWKSGKQTMLSHYRPFYVNKGNGIGSNEAP”, the “soluble on expression in E. coli” value was “not soluble”.
As for “MSLDGKVAVLTGTKKIEVKKLPVPEINDDEMLVKVEGCGVCGTDVFEYKSDPFNYIPVNLGHEGTGEIVKMGKNVKNDWTGKTLKIGDKIVCGPAANGDIYGLMGGEKHYFNGWLANYMVINPNSVVFNVSDMPLDLRILIEPAAVSCHAVAKSKEIYTFKHSSSVVVQGVGPIGLMVIAQMKTLGVRHIIAVDGNASRLELAKKIGATATVNIDDGDSVAAVKELTDGKGANFVFQCTGSTKGASTAWKFLTDHGGICEVGFFVDNGEATYNPHFDVCMPETKITGSWAYVPEDWVEATEFLRETKDEGLDMTQLITNVYPLDQMNEAMAKNMSGTGVKIVYKNNEGHHHHHH”, the entry is “soluble”; as for “MAHHHHHHMESISRTYENIKNDKNNLSNAENENNGNFKAPPNGTVCCPEDLKMYSTIQLNQEIEISKNPFPLHEINKKNDIPLCAQEFSDLTDPLYIKKICLEKVPEWNHFTEDNLRVKQILSGLTNQLFEVGLKEETANNYNSIRTRVLFRIYGKHVDELYNTISEFEVYKTMSKYKIAPQLLNTFNGGRIEEWLYGDPLRIDDLKNPTILIGIANVLGKFHTLSRKRHLPEHWDRTPCIFKMMEKWKNQLFKYKNIEKYNCDIHKYIKESDKFIKFMKVYSKSDNLANTIVFCHNDLQENNIINTNKCLRLIDFEYSGFNFLATDIANFFIETSIDYSVSSYPFFEIDKKKYISYENRKLFITAYLSNYLDKSLVVPTPKLIDEILEAVEVQALGAHLLWGFWSIIRGYQTKSYNEFDFFLYAEQRLKMYDDQKEYLISNNIIKGYD”, “soluble”; as for “MGSDKIHHHHHHVHPTLPHAGKNWPLSARDSPATAMAGKGINAVCLFRYQRRWHQSCFILEHAPGTRNPMTWTECLAVTAFGAFVIDRYDWTGTVKRSSNDEELLVHERLGVVSVQTSPLRRAKPALRHLRGLLIEYDCPVECIAVFAAPHCALDPTLPETTLQASELHHFMRTRFNRFRDSHRQYLDSERIAAYLQLHCTDWGENCV”, “not soluble”.
As for “MKNTLLKLGVCVSLLGITPFVSTISSVQAERKVEHKVIKNETGTISISQLNKNVWVHTELGYFNGEAVPSNGLILNTSKGLVLVDSSWDDKLTKELIEMAEKKFKKSVTDVIITHAHADRIGGIKTLKERGIKAHSTTLTAELAKKNGYEEPLGDLQAITKLKFGNMKVETFYPGKGHTEDNIVVWLPQYNMLVGGCLVKSASAKDLGNITDAYVNEWSTSIENVLKRYENINFVVPGHGEVGDKGLLLHTLDLLK”, the entry is “not soluble”; as for “MLVTKKEISVANIGEELWRFSNSSYTTGSPWTETQFAEDFAQENSEYLFLVENGQWLGYIAYHFILDEAEISHVVVNGQKQHQGIGCQLMKAFKEYVKSRDITQIFLEVRESNILAQKLYEKTGFRKVAVRKNYYKEPQENAFVMCAKLRKEAQ”, “not soluble”; as for “MTGEGYKQAIVVRRDLGMGRGKAAAQAAHASCEAVFLILESGRPEWRRWLEMWRLQGQAKVVLRVESLAELQEVYSKAVEEGLPASFVRDAGKTQLEPGTPTAAAVGPAPSRLVDRITGGLKLF”, “not soluble”.
In the case of “MKIFVLSIRPEEKAQRTGGACFDILNVPVTRLEPIPVDYTDLIRSGVDCVAFTSSYGVRLFFKNAPVKNFRYFGIGKSTCEEVRKYGYDCEYPEKMDSEGLADMIISHCSGRKVALIRSANANEIVNEKIMGHVDFIDLRNYRAVNTNVDLTPYMAKEECMGIIVTSSMEAKIAMPAIKATGKPVYSIGSVTTKTLEEAGIHPAISGNSDFVDLVEKIKKYLCLV”, the “soluble on expression in E. coli” value is listed as “not soluble”.
As for “MRNKILSDGAKELSYEIREIVKKADLINKNGQSIVFENIGDPIQKNNVVPQWIRETISNLTLDNKSYSYSPSKGILKTRQFLAELNNKKAGAQITADDILFFNGLGDAIAKVYQFISRSSRVIGPSPAYSTHSSAEAAHASQDPITYKLDPNNHWYPDLDDLYNKVKYNPNIIGILIINPDNPTGMVYPLETLKRIVEIAREFNLFLLSDEIYLNITYNGARAYSLAEVIEDVPGIAMKGISKEFPWPGSRCGWMEYYNRGKDQDFDKFCSALDNAKMIEVCSTTLPQLAIPVIMSDPRYLPYREELNSKIGKRSKIIAGILGQIPELMFNETYGAFYNTIVFKDGVLNDKQTLPIENAANKALVEKWISEPNVDLDKRFVYYLLAAKGICVVPISSFCSDLKGFRVTLLEENEELLEQTFTSIRDAIRLYLKS”, the entry is “not soluble”; as for “MSLQSSVASGLSLNPEQLAVMAVGSGGVVVSLSAPAETVIVIVEHLDHKEEVIVQGREIVPSMDGHFDTIQELNSRFTESAPREKIEIGNRERPFKLHVVNVGDSRAMLVTRESYAALTRDHVPDDPGELRRIQETGDEGKKDNPSPSPITAKPDVRYFYATWEDVLILHSDGLLAESDRWEEVAGAALQCMESEPRIRGVATCLVQQAYRRGSTDNITALVSTFQKPSLNEGHHHHHH”, “soluble”; as for “MIAARQVSKPIADAVLRYGKDHPVFRNKLLLPIGRGLVRFTSRLRMKRLGLGEPISQAPISESAALEQASDFVQQLVLFSYSVGVFAGYYFYTKMTTPESLKIEDYEEFKQQQERAIKELRLQVESLEQRLAAQQKRNFFSQLGFSKENGDESPPKPSQQAPPPEKPSEEKKPATESLKQRFQRISSLPIDAAASLILDDEEYLVVRRGSSVGIELSVNFAARGDRLRYRIPSPKLRESCAQMALKEAACHVIGAKDRSRFRYVNS”, “not soluble”.
As for “MSAIKEVKSELRQFMKTLLGKISKEETQRQTEAVFEKIIESKWFQESKRLSVYVSTSGEIQTDSIIQKALEMGKEVFIPQFTKGSTAMDMVRVPDQTAFDNLPSTLWGIRQPEPKWKWQSYHETGPLDLILAPGVAFSPYGLRCGHGKGYYDRFFSTHHKHFPENSPKKIGLALREQIIGTIPISETDVELDEVIYEGETIIFDTI”, the entry is “soluble”; as for “MPTDEPSKRKSILPTIPTSLMLKKSNEALSDFERTFNDRVMDIFAENRRIDVEEFKKNAECFLNIIRSNKIDLNWGEGGESRYVTITRLMKILKTSPQSIKDLLPHNTVSNFVKITNYNLTIDITLLEELVRTVIHAEESYIKLLPFSENSTEISSYSLQDFVATHFIPIMIEEPENPVYYTAYAVGTIFFLLGARRRDCVYLKDLLASTLLLQLEECIHAENHCLSPPKIDVFTVAQFRTTLSEFRFLDSQRKGLLAPADLKFFRDGIFNEVFTKRIFEISITYEDGRIDFKAFVDFVTALKFRHTTASAKYHFEILDLKDDGLLDEEEIRSISSFQLQNLPDYVPEDNSVNPEVATAELRDMMRLNQNGITLEEFLANRMNSTFAGFLSNSDDYMKYERREQ”, “not soluble”.
With “MQITLARIDDRLIHGQVTTVWSKVANAQRIIICNDDVFNDEVRRTLLRQAAPPGMKVNVVSLEKAVAVYHNPQYQDETVFYLFTNPHDVLTMVRQGVQIATLNIGGMAWRPGKKQLTKAVSLDPQDIQAFRELDKLGVKLDLRVVASDPSVNILDKINETAFCE”, the “soluble on expression in E. coli” value is recorded as “soluble”.
As for “MGRGRSSSSSSIESSSKSNPFGASSSTRNLSTDLRLGLSFGTSSGTQYFNGGYGYSVAAPAVEDAEYVAAVEEEEENECNSVGSFYVKVNMEGVPIGRKIDLMSLNGYRDLIRTLDFMFNASILWAEEEDMCNEKSHVLTYADKEGDWMMVGDVPWEMFLSTVRRLKISRANYHY”, the entry is “soluble”; as for “MRLNLRQLQIFCAITRFGSTTSAGNALALSQSATSAALNELEGALGTRLFDRVGKRLVLNDSGQSLLPRAMKMLENAQQIEDSFLLPDTTLNARLRIGSSSTIGNYELPSIVGALRESAPLLRVDVDIGNSALIARKVARFEIVMGLIEAPCHLPELIAEPWSVDEMVIVAGINHPLARQKQVSLGELQDAEWLLREPGSGTREEVEHLLLRHLHDLQDLREIGSSEAIKRTLAQGIGISCLSRRVVADLLASGQLKALASPLPPLNRRFFMIRHRDKFISPSLERFREACRQATDQAATLRHGLSHNASPTSSTTP”, “not soluble”.
Turning to “MGSDKIHHHHHHMNCKELQLSPELTQALGEGDVFSRVMALGGEVFRDVPGRKTVRVQLAGQPYFIKQHFGVGWGEIFKNLLAFKVPIVSANTEKQAIEKLGEIGIATTPLAGFGSRGCSPASRQSFLITHDLGDILSLETLADQWMQSPPEPRFKRRLLMEVATLAARLHDSGLNHRDFYICHICLDLPRLRHGDIHLYLIDLHRVGIRETIRPQDRMKDIAALYFSAMNAGLVTRDYLRFLRRYRGKPIRQVMREERDFWQQVQARAIKLYIKLHKVEPGLHQIGGMIG”, the “soluble on expression in E. coli” value is “not soluble”.
On to “MGSDKIHHHHHHMADNVKANKMNSQADDDIGFGIYTDIADLPMTGCPSYIEEGIGGVCESGTATIVVFDVPFQIVPNVVITLMPWQLVFIKEISEDFRITFFKISKDMFSETLSTLWRPASGFLLYMRKHIVSIPDGELIGRFLAYCNLLVYRMKHTPQNCRQESIMQLLRVYFWDVYTVYINDPQAEKSLKFTRKDEYVYQFVRLIIEDHSPDKDVAYFAQKLGISPKRLTNLIRSISGQSAREWIVYYTILEIKSLLRESSLDIKSIAARVNFPDQTTLSRYFRHYTGVTPSQYRKNIYF”, for which the “soluble on expression in E. coli” value is recorded as “not soluble”.
Take “MVNREIVMDYILSCLQDLVENGVEIKPDSDLVNDLGLESIKVMDLLMMLEDRFDISIPINILLDVKTPAQLMETLLPWLENK”: the “soluble on expression in E. coli” value is on record as “not soluble”.
As to “TRGGDSAAAPLDPPKSTATRCLSCNKKVGVTGFKCRCGSTFCGTHRYPESHECQFDFKGVA”, the “soluble on expression in E. coli” value is “soluble”.
